According to patent US20120021972A1 (CADILA HEALTHCARE, published 2012):
Starred links: 1 amine or outer side, 2 acyl side, 3 side chain; linkers in the order of their positions; H or OH if unused. Non-standard residues stand in square brackets, D forms with d. No end group written: not given here. *: point of attachment. ACPP = 2-amino-5-(3-chlorophenyl)pentanoic acid, O=C([C@H](CCCc1cccc(Cl)c1)N[*:1])[*:2]; Bip(2'-Et-4'-OMe) = CCc1cc(OC)ccc1-c1ccc(C[C@H](N)C(=O)O)cc1; 2F‑APPA = 2-amino-5-(2-fluorophenyl)pentanoic acid; αMePhe(2-F) = C[C@](N)(Cc1ccccc1F)C(=O)O; hhPhe = N[C@@H](CCCc1ccccc1)C(=O)O; aThr = C[C@H](O)[C@H](N)C(=O)O; CNB = not defined here; Aib = CC(C)(N)C(=O)O; Moc = COC(=O)*

What follows are binders tested against human GLP-1 receptor (human, UniProt P43220 24-463) (assay: cell-based or functional assay).
human GLP-1 receptor, sequence (P43220 24-463): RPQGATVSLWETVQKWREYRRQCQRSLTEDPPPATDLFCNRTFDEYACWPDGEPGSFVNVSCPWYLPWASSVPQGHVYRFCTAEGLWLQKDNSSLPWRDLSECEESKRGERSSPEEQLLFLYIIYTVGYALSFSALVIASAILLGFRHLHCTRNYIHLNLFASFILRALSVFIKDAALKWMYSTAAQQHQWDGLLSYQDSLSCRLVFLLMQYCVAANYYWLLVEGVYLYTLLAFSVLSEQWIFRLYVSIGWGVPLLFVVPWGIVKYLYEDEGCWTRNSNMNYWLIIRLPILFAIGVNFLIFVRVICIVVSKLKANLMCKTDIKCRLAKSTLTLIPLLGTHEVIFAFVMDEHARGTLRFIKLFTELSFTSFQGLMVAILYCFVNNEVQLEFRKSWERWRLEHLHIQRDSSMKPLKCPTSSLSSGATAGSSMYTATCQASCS

Binder	cAMP release, % activity, 1 nM [%]	cAMP release, % activity, 10 nM [%]	cAMP release, % activity, 100 nM [%]	cAMP release, % activity, 1 µM [%]	cAMP release, % activity, 10 µM [%]
Moc-H[Aib]QG[aThr][αMePhe(2-F)][aThr]SD[Bip(2'-Et-4'-OMe)][2F‑APPA] (also: reduced (CH2) bonds between 9-10 and 10-11) [Seq. ID. No. 200: CH3OCO-H-Aib-QG-T(allo)-(α-Me-2F-Phe)-T(allo)-SD-(CH2)-Bip(OMe)-(CH2)-(2F-APPA)]	55	88	92	99	99
H[Aib][CNB]G[aThr][αMePhe(2-F)][aThr]SD[Bip(2'-Et-4'-OMe)][2F‑APPA] (reading uncertain; also: thioamide bond between residues 10 and 11) [Seq. ID. No. 168: H-Aib-(CNB)-G-T(allo)-(α-Me-2F-Phe)-T(allo)-SD-Bip(OMe)-(C═S)-(2F-APPA)]	96	99	99	99	99
H[Aib][CNB]G[aThr][αMePhe(2-F)][aThr]SD[Bip(2'-Et-4'-OMe)][hhPhe] (reading uncertain; also: reduced (CH2) bonds between 9-10 and 10-11) [Seq. ID. No. 202: H-Aib-(CNB)-G-T(allo)-(α-Me-2F-Phe)-T(allo)-SD-(CH2)-Bip(OMe)-(CH2)-(APPA)]	99	99	99	99	99

Further lines, results first:

cAMP release, % activity, 1 nM [%]	cAMP release, % activity, 10 nM [%]	cAMP release, % activity, 100 nM [%]	cAMP release, % activity, 1 µM [%]	cAMP release, % activity, 10 µM [%]	Binder
99	99	99	99	99	H[Aib]QGTFTSD[Bip(2'-Et-4'-OMe)][ACPP] [Seq. ID. No. 19: H-Aib-QGTFTSD-Bip(OMe)-(ACPP)]
38	77	85	94	97	Moc-H[Aib]QGT[αMePhe(2-F)]TSD[Bip(2'-Et-4'-OMe)][hhPhe] (also: reduced (CH2) bonds between 9-10 and 10-11) [Seq. ID. No. 194: CH3OCO-H-Aib-QGT-(α-Me-2F-Phe)-TSD-(CH2)-Bip(OMe)-(CH2)-(APPA)]
39	80	86	95	98	H[Aib][CNB]G[aThr][αMePhe(2-F)][aThr]SD[Bip(2'-Et-4'-OMe)][hhPhe] (reading uncertain; also: thioamide bonds between residues 9-10 and 10-11) [Seq. ID. No. 178: H-Aib-(CNB)-G-T(allo)-(α-Me-2F-Phe)-T(allo)-SD-(C═S)-Bip(OMe)-(C═S)-(APPA)]

The binders below were run against human glucagon receptor (human, UniProt P47871 26-477) (assay: cell-based or functional assay).

Binder	inhibition of cAMP production, 1 nM [pmol/ml/µg prt]	inhibition of cAMP production, 10 nM [pmol/ml/µg prt]	inhibition of cAMP production, 100 nM [pmol/ml/µg prt]	inhibition of cAMP production, 1 µM [pmol/ml/µg prt]	inhibition of cAMP production, 10 µM [pmol/ml/µg prt]
Moc-H[Aib]QG[aThr][αMePhe(2-F)][aThr]SD[Bip(2'-Et-4'-OMe)][2F‑APPA] (also: reduced (CH2) bonds between 9-10 and 10-11) [Seq. ID. No. 200: CH3OCO-H-Aib-QG-T(allo)-(α-Me-2F-Phe)-T(allo)-SD-(CH2)-Bip(OMe)-(CH2)-(2F-APPA)]	10	8	6	4	1
H[Aib][CNB]G[aThr][αMePhe(2-F)][aThr]SD[Bip(2'-Et-4'-OMe)][2F‑APPA] (reading uncertain; also: thioamide bond between residues 10 and 11) [Seq. ID. No. 168: H-Aib-(CNB)-G-T(allo)-(α-Me-2F-Phe)-T(allo)-SD-Bip(OMe)-(C═S)-(2F-APPA)]	21	19	18	18	16
H[Aib][CNB]G[aThr][αMePhe(2-F)][aThr]SD[Bip(2'-Et-4'-OMe)][hhPhe] (reading uncertain; also: reduced (CH2) bonds between 9-10 and 10-11) [Seq. ID. No. 202: H-Aib-(CNB)-G-T(allo)-(α-Me-2F-Phe)-T(allo)-SD-(CH2)-Bip(OMe)-(CH2)-(APPA)]	9	6	5	3	0

The next lines start with the values.

inhibition of cAMP production, 1 nM [pmol/ml/µg prt]	inhibition of cAMP production, 10 nM [pmol/ml/µg prt]	inhibition of cAMP production, 100 nM [pmol/ml/µg prt]	inhibition of cAMP production, 1 µM [pmol/ml/µg prt]	inhibition of cAMP production, 10 µM [pmol/ml/µg prt]	Binder
0	0	0	0	0	H[Aib]QGTFTSD[Bip(2'-Et-4'-OMe)][ACPP] [Seq. ID. No. 19: H-Aib-QGTFTSD-Bip(OMe)-(ACPP)]
18	16	12	8	6	Moc-H[Aib]QGT[αMePhe(2-F)]TSD[Bip(2'-Et-4'-OMe)][hhPhe] (also: reduced (CH2) bonds between 9-10 and 10-11) [Seq. ID. No. 194: CH3OCO-H-Aib-QGT-(α-Me-2F-Phe)-TSD-(CH2)-Bip(OMe)-(CH2)-(APPA)]
0	0	0	0	0	H[Aib][CNB]G[aThr][αMePhe(2-F)][aThr]SD[Bip(2'-Et-4'-OMe)][hhPhe] (reading uncertain; also: thioamide bonds between residues 9-10 and 10-11) [Seq. ID. No. 178: H-Aib-(CNB)-G-T(allo)-(α-Me-2F-Phe)-T(allo)-SD-(C═S)-Bip(OMe)-(C═S)-(APPA)]
